Data: article PMC7967050 (Advanced Science, 2021)

B1: high-affinity anti-CD38 antibody 028 (scFv) (scFv, V domains shown)
VH: QVQLVQSGAEVKKPGSSVKVSCKAFGGTFSSYAISWVRQAPGQGLEWMGRIIRFLGIANYAQKFQGRVTLIADKSTNTAYMELSSLRSEDTAVYYCAGEPGERDPDAVDIWGQGTMVTVSS
VL: DIQMTQSPSSLSASVGDRVTITCRASQGIRSWLAWYQQKPEKAPKSLIYAASSLQSGVPSRFSGSGSGTDFTLTISSLQPEDFATYYCQQYNSYPLTFGGGTKVEIK
notes: In the functional rows the scFv stands in a CAR on T cells; source: purified scFv
B2: anti-CD38 scFv antibody RP02 (scFv, V domains shown)
VH: PAQLVESGPGLVKPSGTLSLTCAVSGGSISSSNWWSWVRQPPGKGLEWIGEIYHSGSTNYNPSLKSRVTISVDKSKNQFSLKLSSVTAADTAVYYCAREDYYYYMDVWGKGTTVTVQS
VL: QSVLTQPPSVSAAPGQKVTISCSGSSSNIGNNYVSWYQQLPGTAPKLLIYDNNKRPSGIPDRFSGSKSGTSATLGITGLQTGDEADYYCGTWDSSLSAGVFGGGTKLTVL
notes: selected from a combinatorial scFv phage library; In the functional rows the scFv stands in a CAR on T cells; also called RP02 scFv; source: purified scFv

Columns and labels:
[1] = target: T1, Recombinant human CD38 extracellular domain (amino acids 43–300, hCD38-ECD) (Homo sapiens, UniProt P28907, biotin (EZ-Link NHS-PEG4-biotin) for panning and for capture on the SA biosensor; not said for the cross-linking); assay: BLI; Octet Red96, room temperature; biotin conjugated hCD38-ECD captured on SA biosensor; scFv in PBS, 0.02% Tween-20, 0.05% BSA, pH 7.4; association 300 s, dissociation 1200 s; 1:1 Langmuir model; for RP02 (biphasic dissociation) only the initial 0-330 s fitted, apparent KD; details: both partners purified
T1 construct: human CD38, extracellular domain, amino acids 43-300; also called purified CD38; extracellular domain of human CD38; source: bought: Sino Biological, Cat. No. 10818-H08H

ECD domain of mouse CD38 = target: T2, ECD domain of mouse CD38 (Mus musculus, UniProt P56528); assay: BLI; purified scFv antibodies against mCD38-ECD on an Octet; set-up for the mouse protein not told; details: both partners purified
T2 construct: mouse CD38, extracellular domain; also called mCD38-ECD
T2 sequence (P56528 45-304): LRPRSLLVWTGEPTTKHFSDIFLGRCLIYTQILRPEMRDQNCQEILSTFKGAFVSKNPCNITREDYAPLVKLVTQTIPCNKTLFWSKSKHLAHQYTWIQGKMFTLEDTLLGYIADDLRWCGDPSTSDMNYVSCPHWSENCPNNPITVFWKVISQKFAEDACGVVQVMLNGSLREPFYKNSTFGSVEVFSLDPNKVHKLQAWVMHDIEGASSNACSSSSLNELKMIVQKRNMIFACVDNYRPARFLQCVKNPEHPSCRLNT

[2] = target: T3, CD38 on the cell surface (RPMI8226, Daudi, hPBMC) (Homo sapiens, UniProt P28907); assay: flow cytometry on cells; purified scFv incubated with hPBMC, Daudi or RPMI8226 cells, fluorescence labeled secondary antibody; MFI normalised to that of 028 scFv; details: one partner purified
T3 construct: human CD38, endogenous on the surface of RPMI8226, Daudi and PBMC cells; In the functional rows the same protein is also expressed in K562 cells from electroporated CD38 mRNA; also called cell surface CD38; membrane-expressed CD38; source: endogenous, on RPMI8226, Daudi and human PBMC cells

| Binder | Kd [1] [nM] | binding result (ECD domain of mouse CD38) | binding result [2] |
| --- | --- | --- | --- |
| B1 | 0.65 |  |  |
| B2 |  | no binding | binds |
